Experimental data: PMC11102866

How the values were obtained:
[1] = molecular target: NR5A2 D159A D159A (Homo sapiens) (UniProt O00482); assay: smFRET; details: EMSA: 20 mM Tris-HCl pH 7.5, 120 mM NaCl, 1 mM MgCl2, 10 uM ZnCl2, 1 mM DTT, 100 ug/ml BSA, room temperature, 30 min, 50 nM DNA or nucleosome
[2] = molecular target: NR5A2 wild type (Homo sapiens) (UniProt O00482); assay: smFRET; details: EMSA: 20 mM Tris-HCl pH 7.5, 120 mM NaCl, 1 mM MgCl2, 10 uM ZnCl2, 1 mM DTT, 100 ug/ml BSA, room temperature, 30 min, 50 nM DNA or nucleosome
[3] = molecular target: nucleosome reconstituted with Alexa-Fluor-647-labeled H2A-K119C–H2B, H3.3–H4 and DNA carrying the Nr5a2 motif (mouse) (UniProt P10853); assay: FRET or BRET; single-molecule FRET (TIRF): nucleosomes held on the surface by biotin-streptavidin, Cy3 on the 5' end of 601 DNA next to the motif at SHL +5.5, Alexa Fluor 647 on H2A-K119C; NR5A2 flowed in at 0.1 or 0.5 uM (quantified at 0.1 uM); 50 mM Tris pH 7.6, 120 mM NaCl, 1 mM MgCl2, 10 uM ZnCl2, 10% glycerol, 1 mM DTT, 100 ug/ml BSA; 22.5 C; low-FRET state taken as NR5A2 dwell time, single exponential fits, three replicates

| average lifetime of the high-FRET (wrapped, unbound) state [3] | duration of the low-FRET (unwrapped) state, taken as NR5A2 dwell time [3] | Substance | binding signal [1] | binding signal ([1]; mean lifetime of low-FRET (unwrapped) state, less stable than wild type) | binding signal [2] | binding signal ([2]; mean lifetime of low-FRET (unwrapped) state) |
| --- | --- | --- | --- | --- | --- | --- |
|  |  | 601 nucleosome SHL +5.5 for smFRET, with linker DNA | 16.4 s | 9.19 s | 20.3 s | 16.4 s |
| 20.3 s | 16.4 s | human NR5A2 (from UniProt O00482 1-541) (natural protein) |  |  |  |  |
| 16.4 s | 9.19 s | human NR5A2-D159A (from UniProt O00482 1-541) (natural protein) |  |  |  |  |
